From the supplement of paper PMC7125110
± gives the standard error. This sample holds only a part of the variants without activity.

B1: glmS ribozyme (parent)
chain: AUAAAAGCGCCAGAACUACAGAAAUGUAGUUGACGAGGAGGAGGUUUAUCGAAUUUUCGGCGGAUGCCUCCAAA

What was measured:
Settings in all cases: with glucosamine-6-phosphate
[1] = variants of: B1; assay: self-cleavage kobs at 160 uM GlcN6P; higher = faster cleavage; RNA array
Summary of the method: (§1)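 E. coli RNA polymerase transcribed barcoded ribozyme variants in situ on sequenced MiSeq chips, which were tracked via a hybridised Cy3 probe at 37 °C. Tiles were imaged over ~14 h after glucosamine-6-phosphate (40 μM to 10 mM) in HEPES/KCl/Mg(OAc)2 buffer was flowed in. Normalised per-tile medians were fit to one- or two-exponential decays for kobs, and kcat and KM came from weighted Michaelis–Menten fits.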

[2] = variants of: B1; assay: self-cleavage kobs at 640 uM GlcN6P; higher = faster cleavage; RNA array
Summary of the method: as §1

[3] = variants of: B1; assay: self-cleavage kobs at 2500 uM GlcN6P; higher = faster cleavage; RNA array
Summary of the method: as §1

[4] = variants of: B1; assay: self-cleavage kobs at 40 uM GlcN6P; higher = faster cleavage; RNA array
Summary of the method: as §1

[5] = variants of: B1; assay: self-cleavage kobs at 10000 uM GlcN6P; higher = faster cleavage; RNA array
Summary of the method: as §1

G35C C71A
self-cleavage kobs at 160 uM GlcN6P [1]: < 1e-05 s⁻¹
self-cleavage kobs at 640 uM GlcN6P [2]: < 1e-05 s⁻¹
self-cleavage kobs at 2500 uM GlcN6P [3]: < 1e-05 s⁻¹

U65C C70A
self-cleavage kobs at 40 uM GlcN6P [4]: < 1e-05 s⁻¹
self-cleavage kobs at 160 uM GlcN6P [1]: < 1e-05 s⁻¹

A14C G63C U69G
self-cleavage kobs at 160 uM GlcN6P [1]: 7.07e-05 ± 2.1e-05 s⁻¹
self-cleavage kobs at 640 uM GlcN6P [2]: 6.64e-05 ± 2.3e-05 s⁻¹
self-cleavage kobs at 2500 uM GlcN6P [3]: 4.71e-05 ± 1.8e-05 s⁻¹

G32A A42C
self-cleavage kobs at 160 uM GlcN6P [1]: < 1e-05 s⁻¹
self-cleavage kobs at 640 uM GlcN6P [2]: < 1e-05 s⁻¹
self-cleavage kobs at 2500 uM GlcN6P [3]: < 1e-05 s⁻¹
self-cleavage kobs at 10000 uM GlcN6P [5]: < 1e-05 s⁻¹

G9A G29A A48C C58U
self-cleavage kobs at 160 uM GlcN6P [1]: < 1e-05 s⁻¹

U47A G63U
self-cleavage kobs at 160 uM GlcN6P [1]: < 1e-05 s⁻¹
self-cleavage kobs at 640 uM GlcN6P [2]: < 1e-05 s⁻¹
self-cleavage kobs at 2500 uM GlcN6P [3]: < 1e-05 s⁻¹
self-cleavage kobs at 10000 uM GlcN6P [5]: < 1e-05 s⁻¹

A6C G37U C50U G60C
self-cleavage kobs at 160 uM GlcN6P [1]: < 1e-05 s⁻¹
self-cleavage kobs at 640 uM GlcN6P [2]: < 1e-05 s⁻¹

A14C A15C A48U
self-cleavage kobs at 160 uM GlcN6P [1]: < 1e-05 s⁻¹

G13A C50G C61G
self-cleavage kobs at 160 uM GlcN6P [1]: 0.000169 ± 2.6e-05 s⁻¹
self-cleavage kobs at 640 uM GlcN6P [2]: 0.000203 ± 3.6e-05 s⁻¹
self-cleavage kobs at 2500 uM GlcN6P [3]: 0.000114 ± 2.2e-05 s⁻¹

G13C C16A C68U
self-cleavage kobs at 160 uM GlcN6P [1]: < 1e-05 s⁻¹

A52C U65C
self-cleavage kobs at 160 uM GlcN6P [1]: < 1e-05 s⁻¹
self-cleavage kobs at 640 uM GlcN6P [2]: < 1e-05 s⁻¹

G60C U69C
self-cleavage kobs at 40 uM GlcN6P [4]: < 1e-05 s⁻¹
self-cleavage kobs at 10000 uM GlcN6P [5]: < 1e-05 s⁻¹

C10G G38U A42C
self-cleavage kobs at 160 uM GlcN6P [1]: < 1e-05 s⁻¹
self-cleavage kobs at 2500 uM GlcN6P [3]: < 1e-05 s⁻¹

U69G C70G
self-cleavage kobs at 160 uM GlcN6P [1]: 3.61e-05 ± 8.8e-06 s⁻¹
self-cleavage kobs at 640 uM GlcN6P [2]: 0.000255 ± 0.00013 s⁻¹
self-cleavage kobs at 2500 uM GlcN6P [3]: 3.6e-05 ± 9.1e-06 s⁻¹

G38C U45A
self-cleavage kobs at 160 uM GlcN6P [1]: < 1e-05 s⁻¹
self-cleavage kobs at 640 uM GlcN6P [2]: < 1e-05 s⁻¹

C50A C67U C71G
self-cleavage kobs at 160 uM GlcN6P [1]: 4.46e-05 ± 2.1e-05 s⁻¹
self-cleavage kobs at 640 uM GlcN6P [2]: 0.000107 ± 2.5e-05 s⁻¹

G59C G62A
self-cleavage kobs at 160 uM GlcN6P [1]: < 1e-05 s⁻¹
self-cleavage kobs at 640 uM GlcN6P [2]: < 1e-05 s⁻¹
self-cleavage kobs at 2500 uM GlcN6P [3]: < 1e-05 s⁻¹

C8A G29C G32C
self-cleavage kobs at 160 uM GlcN6P [1]: < 1e-05 s⁻¹

C8G U46C
self-cleavage kobs at 160 uM GlcN6P [1]: < 1e-05 s⁻¹
self-cleavage kobs at 640 uM GlcN6P [2]: < 1e-05 s⁻¹
self-cleavage kobs at 2500 uM GlcN6P [3]: < 1e-05 s⁻¹
self-cleavage kobs at 10000 uM GlcN6P [5]: < 1e-05 s⁻¹

U30G G51U
self-cleavage kobs at 160 uM GlcN6P [1]: < 1e-05 s⁻¹
self-cleavage kobs at 10000 uM GlcN6P [5]: < 1e-05 s⁻¹

C8U A48C
self-cleavage kobs at 40 uM GlcN6P [4]: < 1e-05 s⁻¹
self-cleavage kobs at 640 uM GlcN6P [2]: < 1e-05 s⁻¹
self-cleavage kobs at 10000 uM GlcN6P [5]: < 1e-05 s⁻¹

G37C C71G
self-cleavage kobs at 160 uM GlcN6P [1]: < 1e-05 s⁻¹
self-cleavage kobs at 10000 uM GlcN6P [5]: < 1e-05 s⁻¹

A6U C11A A12U C34G C50U U55G
self-cleavage kobs at 160 uM GlcN6P [1]: < 1e-05 s⁻¹
self-cleavage kobs at 640 uM GlcN6P [2]: < 1e-05 s⁻¹
self-cleavage kobs at 2500 uM GlcN6P [3]: < 1e-05 s⁻¹

A14G G35U G40A
self-cleavage kobs at 160 uM GlcN6P [1]: < 1e-05 s⁻¹

C10U A15U
self-cleavage kobs at 160 uM GlcN6P [1]: < 1e-05 s⁻¹
self-cleavage kobs at 10000 uM GlcN6P [5]: < 1e-05 s⁻¹

G41A G44A
self-cleavage kobs at 40 uM GlcN6P [4]: < 1e-05 s⁻¹
self-cleavage kobs at 160 uM GlcN6P [1]: < 1e-05 s⁻¹
self-cleavage kobs at 2500 uM GlcN6P [3]: < 1e-05 s⁻¹
self-cleavage kobs at 10000 uM GlcN6P [5]: < 1e-05 s⁻¹

G41A G63A
self-cleavage kobs at 40 uM GlcN6P [4]: < 1e-05 s⁻¹
self-cleavage kobs at 640 uM GlcN6P [2]: < 1e-05 s⁻¹
self-cleavage kobs at 10000 uM GlcN6P [5]: < 1e-05 s⁻¹

A14U G37U G59U C61A
self-cleavage kobs at 40 uM GlcN6P [4]: < 1e-05 s⁻¹

C10G G29C C50G C58G A64U C70A
self-cleavage kobs at 160 uM GlcN6P [1]: 0.000119 ± 3.1e-05 s⁻¹
self-cleavage kobs at 640 uM GlcN6P [2]: 0.000201 ± 6.9e-05 s⁻¹
self-cleavage kobs at 2500 uM GlcN6P [3]: 0.000165 ± 4e-05 s⁻¹

C10G G32U C34U G40U G41C
self-cleavage kobs at 160 uM GlcN6P [1]: < 1e-05 s⁻¹
self-cleavage kobs at 640 uM GlcN6P [2]: < 1e-05 s⁻¹
self-cleavage kobs at 2500 uM GlcN6P [3]: < 1e-05 s⁻¹

A6U G38U G60C
self-cleavage kobs at 160 uM GlcN6P [1]: < 1e-05 s⁻¹

G7C C34U
self-cleavage kobs at 160 uM GlcN6P [1]: < 1e-05 s⁻¹
self-cleavage kobs at 640 uM GlcN6P [2]: < 1e-05 s⁻¹
self-cleavage kobs at 2500 uM GlcN6P [3]: < 1e-05 s⁻¹
self-cleavage kobs at 10000 uM GlcN6P [5]: < 1e-05 s⁻¹

C50G A52C U69A
self-cleavage kobs at 40 uM GlcN6P [4]: 8.7e-05 ± 2.7e-05 s⁻¹
self-cleavage kobs at 10000 uM GlcN6P [5]: 4.8e-05 ± 1.6e-05 s⁻¹

C11G U47G
self-cleavage kobs at 160 uM GlcN6P [1]: < 1e-05 s⁻¹
self-cleavage kobs at 2500 uM GlcN6P [3]: < 1e-05 s⁻¹
self-cleavage kobs at 10000 uM GlcN6P [5]: < 1e-05 s⁻¹

C8G A42U C58U
self-cleavage kobs at 160 uM GlcN6P [1]: < 1e-05 s⁻¹
self-cleavage kobs at 2500 uM GlcN6P [3]: < 1e-05 s⁻¹

C34A C70U
self-cleavage kobs at 40 uM GlcN6P [4]: < 1e-05 s⁻¹
self-cleavage kobs at 160 uM GlcN6P [1]: < 1e-05 s⁻¹

A36G G41A G63U
self-cleavage kobs at 160 uM GlcN6P [1]: < 1e-05 s⁻¹
self-cleavage kobs at 640 uM GlcN6P [2]: < 1e-05 s⁻¹

G9U G37C
self-cleavage kobs at 160 uM GlcN6P [1]: < 1e-05 s⁻¹
self-cleavage kobs at 640 uM GlcN6P [2]: < 1e-05 s⁻¹
self-cleavage kobs at 2500 uM GlcN6P [3]: < 1e-05 s⁻¹
self-cleavage kobs at 10000 uM GlcN6P [5]: < 1e-05 s⁻¹

G41A G59A
self-cleavage kobs at 40 uM GlcN6P [4]: < 1e-05 s⁻¹
self-cleavage kobs at 160 uM GlcN6P [1]: < 1e-05 s⁻¹

C11A G41U
self-cleavage kobs at 40 uM GlcN6P [4]: < 1e-05 s⁻¹
self-cleavage kobs at 160 uM GlcN6P [1]: < 1e-05 s⁻¹
self-cleavage kobs at 640 uM GlcN6P [2]: < 1e-05 s⁻¹
self-cleavage kobs at 2500 uM GlcN6P [3]: < 1e-05 s⁻¹

C16A U49C
self-cleavage kobs at 160 uM GlcN6P [1]: < 1e-05 s⁻¹
self-cleavage kobs at 640 uM GlcN6P [2]: < 1e-05 s⁻¹
self-cleavage kobs at 10000 uM GlcN6P [5]: < 1e-05 s⁻¹

A36U C50G U69C
self-cleavage kobs at 40 uM GlcN6P [4]: 0.000561 ± 0.00011 s⁻¹
self-cleavage kobs at 10000 uM GlcN6P [5]: 0.000905 ± 0.00017 s⁻¹

G7A A12G
self-cleavage kobs at 40 uM GlcN6P [4]: < 1e-05 s⁻¹
self-cleavage kobs at 640 uM GlcN6P [2]: < 1e-05 s⁻¹
self-cleavage kobs at 2500 uM GlcN6P [3]: < 1e-05 s⁻¹
self-cleavage kobs at 10000 uM GlcN6P [5]: < 1e-05 s⁻¹

G41C U54G C67U
self-cleavage kobs at 160 uM GlcN6P [1]: < 1e-05 s⁻¹

C8A C70G
self-cleavage kobs at 160 uM GlcN6P [1]: < 1e-05 s⁻¹

A6C G32U A64G C67U
self-cleavage kobs at 160 uM GlcN6P [1]: < 1e-05 s⁻¹
self-cleavage kobs at 640 uM GlcN6P [2]: < 1e-05 s⁻¹
self-cleavage kobs at 2500 uM GlcN6P [3]: < 1e-05 s⁻¹

A15G U55G C70A
self-cleavage kobs at 160 uM GlcN6P [1]: 7.19e-05 ± 1.2e-05 s⁻¹
self-cleavage kobs at 640 uM GlcN6P [2]: 0.000151 ± 2.6e-05 s⁻¹
self-cleavage kobs at 2500 uM GlcN6P [3]: 0.000186 ± 3.7e-05 s⁻¹

G13A A42G G43U C70A
self-cleavage kobs at 160 uM GlcN6P [1]: < 1e-05 s⁻¹
self-cleavage kobs at 640 uM GlcN6P [2]: < 1e-05 s⁻¹
self-cleavage kobs at 10000 uM GlcN6P [5]: < 1e-05 s⁻¹

A14U U31A U47A
self-cleavage kobs at 160 uM GlcN6P [1]: 0.000611 ± 0.00016 s⁻¹
self-cleavage kobs at 640 uM GlcN6P [2]: 0.00172 ± 0.00055 s⁻¹

A6G C16G G38A
self-cleavage kobs at 160 uM GlcN6P [1]: < 1e-05 s⁻¹
self-cleavage kobs at 640 uM GlcN6P [2]: < 1e-05 s⁻¹

A15C G66A
self-cleavage kobs at 40 uM GlcN6P [4]: 8.43e-05 ± 1.9e-05 s⁻¹
self-cleavage kobs at 160 uM GlcN6P [1]: 0.000372 ± 0.00011 s⁻¹
self-cleavage kobs at 640 uM GlcN6P [2]: 0.000599 ± 0.00014 s⁻¹
self-cleavage kobs at 2500 uM GlcN6P [3]: 0.00264 ± 0.00049 s⁻¹
self-cleavage kobs at 10000 uM GlcN6P [5]: 0.00503 ± 0.0012 s⁻¹
